The target in test [1] is FtsX‐His (full‐length pneumococcal FtsX with a His6 tag) (Streptococcus pneumoniae). Kind of test: cross-linking; FtsX‐His (5–10 μmol/L) with glutaraldehyde (0.5–2.0 mmol/L), 30–45 min, room temperature, 50 mmol/L HEPES pH 8.0, 200 mmol/L NaCl, 5% glycerol, 0.02% DDM, 0.02% C12E8; SDS‐PAGE, Coomassie.
Test [2] shares this target. The test is described as follows: cross-linking; FtsX‐His and FtsE‐His together in detergent micelles with glutaraldehyde; data not shown.
For test [3] the target is unchanged. Kind of test: densitometry of Coomassie‐stained bands of purified nanodiscs; FtsX‐His reconstituted in MSPE3D1/soybean lipid nanodiscs, purified by Ni‐NTA and SEC; relative intensities of MSPE3D1 and FtsX‐His bands, assuming two MSPE3D1 per nanodisc.

Experimental findings from article PMC5061712 are described below.

For the substance “FtsX‐His (full‐length pneumococcal FtsX with a His6 tag) (natural protein)”, the stoichiometry N in test [1] and in test [2] was 2 in each case. Also, the FtsX‐His molecules per nanodisc (molecules per nanodisc) in test [3] amounted to 1.5.
